Measured values from patent US9688743B2, “Optical biosensors” (Carnegie Mellon University, priority 2007, dated 2017).

Experiments:
[1] = Cell surface complementation, flow cytometry of TO1-2p fluorescence; assay type: cell-based; settings: 1 μM TO1-2P, induced JAR200 yeast, emission at 530
Description: In the following experiments three classes of yeast cells were generated by molecular biology methods known in the art. One class of yeast expressed only the heavy chain of the scFv on the surface. A second class expressed only the light chain of the scFv on its surface. The third class expressed both the heavy and light chains on the surface. When the fluorescent reporter TO1 was added independently to solutions containing the three classes of yeast cells, only the third class that expressed both heavy and light chains at a high surface density produced a fluorescence increase, as shown below. Specifically, two vectors, pPNL6 and pPNL6URA3 were prepared, where the TRP1 gene of pPNL6 was replaced with the URA3 gene of S. cerevisiae. This approach allowed selection for both plasmids in a single cell. Fragments carrying scFv1, scFv1 HO (heavy only chain), or scFv1 LO (light only chain) were cloned into each of the two vectors. […]
In the first approach, flow cytometry was used to assay cellular fluorescence of the three classes of yeast in the presence and absence of TO 1. The population of induced cells was analyzed by measuring fluorescence emitted at 685 from a signal caused by protein labeled by anti-C-myc Alexa 647. […] For cells that expressed full length fragments the TO1-2p fluorescence was observed as emission at 530.

[2] = Cell surface complementation, fluorescence spectrometer on cell suspensions; assay type: cell-based, yeast; settings: for Fluorescence: 1 μM TO1-2P, excitation 506 nm, emission 610 nm, corrected for buffer+dye and no-dye samples
Description: In the following experiments three classes of yeast cells were generated by molecular biology methods known in the art. One class of yeast expressed only the heavy chain of the scFv on the surface. A second class expressed only the light chain of the scFv on its surface. The third class expressed both the heavy and light chains on the surface. When the fluorescent reporter TO1 was added independently to solutions containing the three classes of yeast cells, only the third class that expressed both heavy and light chains at a high surface density produced a fluorescence increase, as shown below. Specifically, two vectors, pPNL6 and pPNL6URA3 were prepared, where the TRP1 gene of pPNL6 was replaced with the URA3 gene of S. cerevisiae. This approach allowed selection for both plasmids in a single cell. Fragments carrying scFv1, scFv1 HO (heavy only chain), or scFv1 LO (light only chain) were cloned into each of the two vectors.
JAR200 yeast cells were transformed with each single plasmid as well as both scFv1 HO (PNL6)+scFv1 LO (PNL6URA3) or both scFv1 HO (PNL6URA3)+scFv1 LO (PNL6). Analysis by FACS and TECAN followed induction of the cells. In both cases, 1 μM TO1-2P was used.
In the second approach, a fluorescence spectrometer was used to quantify the fluorescence from suspensions of cells. The fluorescence excitation wavelength was 506 nm and the emission wavelength was 610 nm. Values presented below are corrected from raw data by subtracting out the values for (buffer+dye) and induced (no dye) samples. They were then corrected for the per cent of the population that was induced, as determined by the flow cytometry analysis.

[3] = Fluorogen binding affinity to soluble FBPs (MG-2p); settings: soluble versus yeast surface displayed FBP
Description: (§1) Binding affinity to soluble scFvs was determined by monitoring fluorogenic signal under conditions of ligand depletion using a homogenous 96 well microplate assay similar to above. 1 nM HL1.0.1-TO1, 10 nM L5-MG and 100 nM HL4-MG were each assayed with a 0.1 to 1000 nM range of fluorogen. Fluorescence of each FBP+dye sample was corrected by subtracting the fluorescence of a dye only sample. KD values were determined by non-linear regression using Graphpad Prism 4.0 and a ligand depletion algorithm. Y═(X+KD+R−√{square root over ((−X−KD−R)^2−4*X*R)})÷2 where X is the concentration of fluorogen, and R is the concentration of FBP/fluorogencomplex at the observed or extrapolated plateau at maximum fluorescence. Determination of Quantum Yields

[4] = Fluorogenic enhancement of purified FBP (MG-2p); assay type: biochemical; settings: HL4-MG/MG-2p complex
Description: (§2) Fluorogenic enhancement of HL4-MG, L5-MG and HL1.0.1-TO1 was measured in 96 well microplates on a Tecan Safire2 reader by comparison of the fluorescence of 500 nM free fluorogen with the fluorescence of a mixture of 500 nM fluorogen and 2 μM respective FBP. After a 1 hour incubation to allow complex formation, fluorescence was measured at the excitation and emission maxima of the fluorogen/FBP complexes. Fluorescence of yeast PBS buffer was subtracted from all samples. Fluorescence readings were stable for at least 16 hours.
(§3) Extended gain settings were used to increase numerical accuracy. For HL4-MG and L5MG, the differences in fluorescence between complexes and free dye exceeded the extended gain range of the instrument, so intermediate concentrations of Cy5 were also measured to allow interpolation between the extreme values. Two independent experiments, each with triplicate measurements, were carried out for each of the 3 FBPS; standard deviations for averaged values of FBPS, free fluorogen or PBS were less than 5%. The fold-enhancement values for HL4-MG and L5-MG were respectively multiplied by 1.35 and 1.20 to correct for partial complexation.

[5] = Quantum yield and absorbance of FBP/MG-2p complex; assay type: physicochemical
Description: (§4) FIG. 15 provides graphs illustrating absorbance of fluorogens and FBP/fluorogen complexes. Shown are samples used in quantum yield determinations. The absorbance of FBP/fluorogen complexes is obtained on a dual beam PerkinElmer Lambda 45 spectrophotometer using an equal concentration of FBP without fluorogen as the reference.
(§5) Quantum yields were determined by comparing integrated spectra of FBP/fluorogen complexes with those of reference dyes. Corrected emission spectra were taken at concentrations of FBP/fluorogen complex and reference dyes giving similar absorbances at the excitation wavelength, and the intensity integral computed. Provisional quantum yields were calculated by the relation:
(§6) [formula] where (phi is the quantum yield, I is the integrated intensity, A is the absorbance, η is the refractive index, and R designates the reference dye. Provisional quantum yields were adjusted to 1:1 complexation by using the solution KD of the complex to quantify the proportional occupancy at these concentrations (using Graphpad Prism 4.0 and the above ligand depletion algorithm).
A cyanic dye, Cy5.18 in PBS and Di-S—C2-(5) in MeOH were used as reference fluorophores for the determination of HL4-MG/MG-2p and L5-MG/MG-2p quantum yields. 2 μM scFv and 440 nM MG-2p were employed; emission spectra of respective complexes were taken in duplicate. […] These differences in absorbance magnitude underrepresent actual differences because of incomplete complexation at these concentrations. HL4MG/MG-2p and L5-MG/MG-2p quantum yields were respectively multiplied by 1.35 and 1.20 to correct for incomplete complexation. Fluorescein in 0.1 N NaOH and Rhodamine-6-G in MeOH were used as reference fluorophores for the determination of the quantum yield of HL1.0.1-TO1/TO12p. At the employed concentrations of 2 μM scFv and 520 nM TO1-2p, virtually complete complexation is expected, and no correction was used. Only slight changes in absorbance magnitude were noted.

[6] = Fluorogen binding affinity to yeast surface displayed FBPs (TO1-2p)
Description: Cell surface KD values were determined on Prism Graphpad Prism 4.0 software by non-linear regression analysis using a one-site binding algorithm for saturation binding: Y═Bmax*X═(KD+X) where X is the concentration of fluorogen. Determination of Fluorogen Binding Affinity to Soluble FBPs

[7] = Spectral characterization of yeast surface displayed FBPs (TO1-2p); assay type: physicochemical; settings: cell surface; for excitation maximum: free dye absorbance 504 nm
Description: 10^6 cells in 200 μl yeast buffer were assayed with 100-1000 nM MG-2p or TO1-2p. Spectra were corrected by subtraction of fluorescence of control cells not expressing scFvs.

[8] = Fluorogen binding affinity to soluble FBPs (TO1-2p); settings: soluble FBP, in words
Description: as §1

[9] = Fluorogenic enhancement of purified FBP (TO1-2p); assay type: biochemical; settings: direct measurement
Description: as §2, §3

[10] = Quantum yield and absorbance of FBP/TO1-2p complex; assay type: physicochemical
Description: as §4, §5, §6
A cyanic dye, Cy5.18 in PBS and Di-S—C2-(5) in MeOH were used as reference fluorophores for the determination of HL4-MG/MG-2p and L5-MG/MG-2p quantum yields. […] These differences in absorbance magnitude underrepresent actual differences because of incomplete complexation at these concentrations. […]

B1: HO PNL6: scFv1 heavy chain only, vector pPNL6, displayed on yeast (antibody, V domains shown)
VH: QVQLVESEAEVKKPGSSVKVSCKASGGTFSSYAISWVRQAPGQGLEWMGGIIPIFGTANYAQKFQGRVTITADESTSTAYMELSSLRSEDTAVYYCVLLDTTMVTGYYFDYWGQGTLVTVSS
MEAN 530 SIGNAL [1]: 88
Fluorescence [2]: 135
F/ (% Pop IND) ([2]; fluorescence corrected for per cent of population induced): 160

B2: HO PNL6URA3: scFv1 heavy chain only, vector pPNL6URA3, displayed on yeast (antibody, V domains shown)
VH: B1 VH
MEAN 530 SIGNAL [1]: 82
Fluorescence [2]: −605

B3: HL4-MG: malachite green binding scFv, SEQ ID NO: 11 (protein)
scFv: QVQLVESEGGLVQPGGSLRLSCAASGFTFSSYEMNWVRQAPGKGLEWVSRIDGDGSSTNYADSVKGRFTISRDNAKSTLYLQMNSLRAEDTAVYYCTRARYFGSVSPYGMDVWGQGTTVTVSSGILGSGGGGSGGGGSGGGGSDIRVTQSPSSVSASVGDRVTISCRASQGIATWLGWYQQKPGKPPQLLIYSASTLQTGVPSRFSGSGSGTDFTLTISSLQPEDVATYYCQEGSTFPLTFGGGTKVDIKSGILEQKLISEEDL
modifications: scFv sequence, (GILEQKLISEEDL at end of sequence is derived from a vector)
reduced affinity for MG-2p in solution as compared to surface display [3]: 185 fold
fluorescence enhancement as compared to free fluorogen [4]: about 18,000 fold
absorbance of FBP/fluorogen relative to free MG-2p [5]: more than 1.4 fold
extinction coefficient [5]: about 105,000 M^−1 cm^−1
quantum yield [5]: 0.17

B4: L5-MG: malachite green binding light chain only FBP, SEQ ID NO: 13 (antibody)
VL: SASTGSFDSWGQGTLVTVSSGILGSGGGGSGGGGSGGGGSQAVVTQEPSVTVSPGGTVILTCGSSTGAVTSGHYANWFQQKPGQAPRALIFETDKKYSWTPGRFSGSLLGAKAALTISDAQPEDEAEYYCLLSDVDGYLFGGGTQLTVLSGILEQKLISEEDL
modifications: scFv sequence, (GILEQKLISEEDL at end of sequence is derived from a vector)
reduced affinity for MG-2p in solution as compared to surface display [3]: 265 fold

B5: HL2-TO1: fluorogen binding scFv, SEQ ID NO: 5 (protein)
scFv: QVQLQQGGAGLLKPSETLSLTCGVYGGSFSGYYWSWIRQSPGKGLEWIGEINHSGSANYNPSVKSRVTISVDTSKNQFSLQLSSVTAADTAVYYCARDRAVLTGEGWYFDLWGRGTLVTVSSGILGSGGGGSGGGGSGGGGSSYELTQPPSVSVSPGQTASITCSGDKLGDKYTCWYQQKPGQSPVLVLYEDTKRPSGIPERFSGSNSGNTATLTISRVEAGDEADYYCQLWDSSSDHYVFGSGTKLTVL
modifications: scFv sequence
dissociation constants ([6]; yeast surface displayed FBP, TO1-2p, in words): high nanomolar range
emission maxima [7]: 550 nm
excitation maximum [7]: 515 nm

B6: HL1.0.1-TO1: affinity matured fluorogen binding scFv, SEQ ID NO: 7 (protein)
scFv: QVQLVESEAEVKKPGSSVKVSCKASGGTFSSYAISWVRQAPGQGLEWMGGTIPIFGTADYAQEFQGRVTITTDESTSTAYMELSGLRSEDTAVYYCVLLGTTMVTGHYFDYWGQGTLVTVSSGILGSGGGGSGGGGSGGGGSNFMLTQPPSASGTPGQSVTISCSGSGSNIGNNKVNWYQQLPGTAPKLLIYSNNQRPSGVPDRFSGSKSGTSASLAISGLQSEDEADYYCAAWDDGLSGYVFGTGTKLTVL
modifications: scFv sequence
Kd ([6]; yeast cell surface displayed FBP, fluorogen TO1-2p): ~3 nM
KD in solution [8]: very similar to that observed on the cell surface
fluorescence increase of TO1-2p upon binding [9]: about 2,600 fold
extinction coefficient [10]: 60,000 M^−1 cm^−1
quantum yield [10]: 0.47
emission maxima [7]: 530 nm
excitation maximum [7]: 509 nm
